Measured values from doi:10.1101/2023.08.24.554544 (bioRxiv, 2023).

Target: T1, GST-tagged A. thaliana Rpn10 (AtRpn10) vWA domain (Arabidopsis thaliana, UniProt P55034 2-193)
T1 construct: also called GST-AtRpn10; GST-Rpn10vWA
T1 sequence: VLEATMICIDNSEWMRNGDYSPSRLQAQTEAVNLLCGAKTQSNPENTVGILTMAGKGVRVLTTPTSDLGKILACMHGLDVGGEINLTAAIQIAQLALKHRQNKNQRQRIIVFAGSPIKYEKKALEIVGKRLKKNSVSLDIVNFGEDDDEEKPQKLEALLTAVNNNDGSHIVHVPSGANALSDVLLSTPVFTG
Assay: SPR
Conditions: both partners purified

B1: aster yellows witches'-broom phytoplasma SAP05 (AYWB_SAP05), mature, 33-135 (natural protein)
chain: APNEEFVGDMRIVNVNLSNIDILKKHETFKKYFDFTLTGPRYNGNIAEFAMIWKIKNPPLNLLGVFFDDGTRDDEDDKYILEELKQIGNGAKNMYIFWQYEQK
notes: source: E. coli BL21(DE3), purified (Ni-NTA, Superdex 75)
B1 showed a Kd of 400 ± 39 nM.

B2: onion yellows phytoplasma (OY-M strain) SAP05 (OY_SAP05) (natural protein)
chain: APHEERVGDMRIVNITFSDINSIKNFQPFSQYFDFTLTGPRYNGNIAQFAMIWKIKNPPHNLLGVFFDNNTRDDEDDKYTLEELKQMGNGAKNMYIFWQYEQK
notes: as for B1
Binder B2 has a Kd of 398 ± 39 nM.
